Reference: patent US20240287163A1 (Chugai, published 2024)
Blank lines part the entries; values can stand above or below the binder they belong to.

Tests used:
[1] = target: T1, recombinant human C1r2s2 tetramer (human, UniProt P09871 16-688; P00736 18-705); assay: SPR (Biacore T200), 37 C; ratio of KD at pH 6.0 to KD at pH 7.4
T1 construct: C1s and C1r co-expressed in HEK293 and purified from the supernatant as tetramer; also called hC1r2s2
T1 chain 1: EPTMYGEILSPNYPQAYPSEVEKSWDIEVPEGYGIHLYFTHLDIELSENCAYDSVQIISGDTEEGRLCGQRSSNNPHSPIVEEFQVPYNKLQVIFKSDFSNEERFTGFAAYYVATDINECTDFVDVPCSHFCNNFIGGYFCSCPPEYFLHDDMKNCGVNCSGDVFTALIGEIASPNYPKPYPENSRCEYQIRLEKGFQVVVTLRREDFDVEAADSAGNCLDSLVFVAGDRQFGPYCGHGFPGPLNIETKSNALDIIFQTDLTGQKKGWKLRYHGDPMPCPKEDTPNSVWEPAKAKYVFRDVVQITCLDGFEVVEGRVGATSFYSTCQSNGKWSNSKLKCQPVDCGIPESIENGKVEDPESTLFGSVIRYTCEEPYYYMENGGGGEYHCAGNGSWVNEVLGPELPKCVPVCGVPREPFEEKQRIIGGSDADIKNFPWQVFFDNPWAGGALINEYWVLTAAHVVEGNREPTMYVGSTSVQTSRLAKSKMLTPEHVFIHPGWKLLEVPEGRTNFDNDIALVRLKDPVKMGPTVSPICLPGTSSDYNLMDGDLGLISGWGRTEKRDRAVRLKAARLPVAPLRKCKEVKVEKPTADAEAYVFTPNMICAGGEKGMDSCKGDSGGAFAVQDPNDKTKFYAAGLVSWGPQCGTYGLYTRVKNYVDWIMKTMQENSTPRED
T1 chain 2: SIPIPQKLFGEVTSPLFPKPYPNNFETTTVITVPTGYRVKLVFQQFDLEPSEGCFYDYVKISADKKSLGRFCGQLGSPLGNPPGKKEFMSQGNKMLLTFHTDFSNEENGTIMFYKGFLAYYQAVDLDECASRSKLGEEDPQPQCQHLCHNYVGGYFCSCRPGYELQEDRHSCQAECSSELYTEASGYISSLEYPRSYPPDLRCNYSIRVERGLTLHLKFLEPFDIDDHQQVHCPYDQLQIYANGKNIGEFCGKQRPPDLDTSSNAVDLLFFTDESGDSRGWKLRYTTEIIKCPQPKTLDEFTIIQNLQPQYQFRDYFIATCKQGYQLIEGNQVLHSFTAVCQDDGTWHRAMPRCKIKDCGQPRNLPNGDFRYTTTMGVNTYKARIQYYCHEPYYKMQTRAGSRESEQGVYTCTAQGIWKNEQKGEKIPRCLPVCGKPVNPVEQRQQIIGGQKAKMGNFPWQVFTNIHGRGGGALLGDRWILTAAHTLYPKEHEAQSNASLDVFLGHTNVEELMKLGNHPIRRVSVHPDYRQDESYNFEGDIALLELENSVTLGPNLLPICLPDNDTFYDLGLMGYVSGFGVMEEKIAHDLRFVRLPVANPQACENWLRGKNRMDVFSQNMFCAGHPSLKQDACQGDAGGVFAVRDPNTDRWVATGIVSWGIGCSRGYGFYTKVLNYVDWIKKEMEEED
Protocol: (§1) The binding property of each sample at pH7.4 and pH6.0 was determined at 37° C. using BIACORE® T200 instrument (Cytiva). […] 20 mM ACES, 150 mM NaCl, 1.2 mM CaCl₂, 1 mg/mL BSA (not containing IgG), 1 mg/mL CMD, 0.05% Tween® 20, 0.005 w/v % NaN₃, pH7.4 or pH6.0 buffer was used as the running buffer. […] The antibody solution was added thereto at 30 μL/min for 120 seconds, the running buffer was then added at 30 μL/min for 180 seconds, and the dissociation constant (KD) of each antibody for hC1r2s2 and cyC1r2s2 was calculated. […] The sensor surface was regenerated every cycle, using 3 M MgCl2 (prepared in-house). The KD value was calculated using BIACORE® T200 evaluation software version 2.0 (Cytiva). The binding strengths under each pH condition were compared by dividing the KD value at pH6.0 with the KD value at pH7.4.

[2] = target: T2, recombinant cynomolgus C1r2s2 tetramer (cynomolgus monkey, limits assumed); assay: as above
T2 construct: also called cyC1r2s2; monkey C1r2s2
T2 chain 1: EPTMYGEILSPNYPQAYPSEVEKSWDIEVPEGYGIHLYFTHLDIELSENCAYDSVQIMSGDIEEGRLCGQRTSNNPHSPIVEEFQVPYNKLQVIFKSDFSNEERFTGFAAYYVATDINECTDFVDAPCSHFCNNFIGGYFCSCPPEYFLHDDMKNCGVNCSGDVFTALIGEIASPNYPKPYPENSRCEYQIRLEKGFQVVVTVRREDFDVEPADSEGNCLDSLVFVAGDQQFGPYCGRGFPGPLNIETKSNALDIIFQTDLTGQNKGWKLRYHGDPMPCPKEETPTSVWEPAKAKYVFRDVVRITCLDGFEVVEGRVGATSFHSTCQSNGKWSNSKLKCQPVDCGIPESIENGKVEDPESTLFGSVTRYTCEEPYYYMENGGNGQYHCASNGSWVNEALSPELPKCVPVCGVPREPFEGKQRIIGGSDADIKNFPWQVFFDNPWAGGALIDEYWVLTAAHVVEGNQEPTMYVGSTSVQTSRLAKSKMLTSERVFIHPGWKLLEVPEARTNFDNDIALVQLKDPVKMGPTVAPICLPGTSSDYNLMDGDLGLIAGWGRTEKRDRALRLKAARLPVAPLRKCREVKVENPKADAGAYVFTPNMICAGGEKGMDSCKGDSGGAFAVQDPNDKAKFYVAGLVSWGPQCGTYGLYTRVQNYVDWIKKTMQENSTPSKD
T2 chain 2: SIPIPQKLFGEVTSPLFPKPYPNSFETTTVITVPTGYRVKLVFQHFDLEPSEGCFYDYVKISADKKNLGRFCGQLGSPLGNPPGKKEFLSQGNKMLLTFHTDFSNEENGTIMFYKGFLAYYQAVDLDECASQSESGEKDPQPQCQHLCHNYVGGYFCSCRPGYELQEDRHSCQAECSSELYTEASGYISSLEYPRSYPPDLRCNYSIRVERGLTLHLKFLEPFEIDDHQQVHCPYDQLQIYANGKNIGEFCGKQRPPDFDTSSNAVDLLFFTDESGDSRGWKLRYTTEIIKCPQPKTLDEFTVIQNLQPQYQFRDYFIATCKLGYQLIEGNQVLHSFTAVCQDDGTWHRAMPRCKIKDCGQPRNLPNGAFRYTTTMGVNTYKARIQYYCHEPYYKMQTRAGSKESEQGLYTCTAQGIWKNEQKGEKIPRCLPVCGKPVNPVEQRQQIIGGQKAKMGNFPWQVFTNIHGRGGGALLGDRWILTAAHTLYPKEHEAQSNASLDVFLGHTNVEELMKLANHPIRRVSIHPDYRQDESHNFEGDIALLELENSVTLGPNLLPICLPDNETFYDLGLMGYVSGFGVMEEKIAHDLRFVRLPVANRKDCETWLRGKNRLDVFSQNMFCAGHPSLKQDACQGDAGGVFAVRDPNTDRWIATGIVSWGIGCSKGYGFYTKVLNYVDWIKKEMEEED
Protocol: as §1

[3] = target: T2, recombinant cynomolgus C1r2s2 tetramer; assay: SPR (Biacore T200), 37 C, pH 6.0; cyC1r2s2 captured by IPN009, antibody as analyte
Protocol: as §1

[4] = target: T2, recombinant cynomolgus C1r2s2 tetramer; assay: SPR (Biacore T200), 37 C, pH 7.4; cyC1r2s2 captured by IPN009, antibody as analyte
Protocol: as §1

[5] = target: T1, recombinant human C1r2s2 tetramer; assay: SPR (Biacore T200), 37 C, pH 6.0; hC1r2s2 captured by IPN009, antibody as analyte; pH 6.0, 37 C; hC1r2s2 captured by IPN009 on the chip, antibody as analyte
Protocol: as §1

[6] = target: T1, recombinant human C1r2s2 tetramer; assay: SPR (Biacore T200), 37 C, pH 7.4; hC1r2s2 captured by IPN009, antibody as analyte; pH 7.4, 37 C; hC1r2s2 captured by IPN009 on the chip, antibody as analyte
Protocol: as §1

[7] = target: T1, recombinant human C1r2s2 tetramer; assay: SPR (Biacore T200), IPN009 immobilised on CM5 chip as capture antibody
Protocol: as §1

[8] = target: T2, recombinant cynomolgus C1r2s2 tetramer; assay: as above
Protocol: as §1

- KD (pH 6.0)/KD (pH 7.4) [1]: 26.5
- KD (pH 6.0)/KD (pH 7.4) [2]: 43.8
- Kd [3]: 22 nM
- Kd [4]: 0.502 nM
- Kd [5]: 10.3 nM
- Kd [6]: 0.388 nM
B1: COS0637pHv3-TT91R (antibody, human IgG1, V domains shown)
VH: QVQLVESGGGVVQPGRSLRLSCAASGFTFSAYAMNWIRQPPGKGLEWIGLIYGSGHEFYASWAEERVTISVDTSKNQFSLKLSSVTAADTAVYYCARGRSKNYVSGFHLWGQGTLVTVSS
VL: DIQMTQSPSSLSASVGDRVTITCQASQILHDKKNLAWYQQKPGQPPKLLIYQASQLESGVPSRFSGSGSGTDFTLTISSLQPEDFATYYCHGEFSYESADLNQFGQGTKVEIKR
notes: Modified human IgG1 constant region TT91R, light chain constant region SK1

- binding result [7]: binds
- binding result [8]: binds
B2: IPN009VH2VK3-SG1148 (antibody, human IgG1, kappa, V domains shown)
VH: EVMLVESGGGLVKPGGSLRLSCAASGFTFSNYAMSWVRQAPGKGLEWVATISSGGSHTYYLDSVKGRFTISRDNSKDTLYLQMNSLRAEDTALYYCARLFTGYAMDYWGQGTLVTVSS
VL: QIVLTQSPATLSLSPGERATLSCTASSSVSSSYLHWYQQKPGKAPKLWIYSTSNLASGVPSRFSGSGSGTDYTLTISSLQPEDFATYYCHQYYRLPPITFGQGTKLEIKR
notes: Anti-C1s / anti-human C1r2s2 antibody immobilised on the chip as capture reagent
